Assay results from publication PMC9396398, “Crystal structure of Ankyrin-G in complex with a fragment of Neurofascin reveals binding mechanisms required for integrity of the axon initial segment” (The Journal of Biological Chemistry, 2022).

B1: Nfasc ankyrin-binding domain (ABD, residues 1187-1214) [not stated] / AnkG ANK repeats (residues 38-855, R1-24) [not stated] (parent complex)
chain 1: SDDSLVDYGEGGEGQFNEDGSFIGQYTV
chain 2: KSDANASYLRAARAGHLEKALDYIKNGVDVNICNQNGLNALHLASKEGHVEVVSELLQREANVDAATKKGNTALHIASLAGQAEVVKVLVTNGANVNAQSQNGFTPLYMAAQENHLEVVRFLLDNGASQSLATEDGFTPLAVALQQGHDQVVSLLLENDTKGKVRLPALHIAARKDDTKAAALLLQNDTNADIESKMVVNRATESGFTPLHIAAHYGNINVATLLLNRAAAVDFTARNDITPLHVASKRGNANMVKLLLDRGAKIDAKTRDGLTPLHCGARSGHEQVVEMLLDRAAPILSKTKNGLSPLHMATQGDHLNCVQLLLQHNVPVDDVTNDYLTALHVAAHCGHYKVAKVLLDKKANPNAKALNGFTPLHIACKKNRIRVMELLLKHGASIQAVTESGLTPIHVAAFMGHVNIVSQLMHHGASPNTTNVRGETALHMAARSGQAEVVRYLVQDGAQVEAKAKDDQTPLHISARLGKADIVQQLLQQGASPNAATTSGYTPLHLSAREGHEDVAAFLLDHGASLSITTKKGFTPLHVAAKYGKLEVASLLLQKSASPDAAGKSGLTPLHVAAHYDNQKVALLLLDQGASPHAAAKNGYTPLHIAAKKNQMDIATSLLEYGADANAVTRQGIASVHLAAQEGHVDMVSLLLSRNANVNLSNKSGLTPLHLAAQEDRVNVAEVLVNQGAHVDAQTKMGYTPLHVGCHYGNIKIVNFLLQHSAKVNAKTKNGYTPLHQAAQQGHTHIINVLLQNNASPNELTVNGNTALAIARRLGYISVVDTLKVVTEEIMTTTTITEKHKMNVPETMNEVLDMS
B2: Nfasc 1198 to 1214 WT [not stated] / AnkG ANK repeats (residues 38-855, R1-24) [not stated] (parent complex)
chain 1: GEGQFNEDGSFIGQYTV
chain 2: B1 chain 2

Variants of: B1
Assay: ITC; parent: 220 nM

Variant	Kd
chain 2 L306Q, chain 2 L339Q	2000 nM
chain 2 R281A, chain 2 Q314A	670 nM
chain 2 V245Q	1300 nM
chain 2 I240Q, chain 2 L273Q	3000 nM
chain 2 H347A	1700 nM

Now from value to variant:

Kd	Variant
2500 nM	chain 2 T302A, chain 2 N304A
1800 nM	chain 2 M311Q

Variants of: B2
Assay: ITC; parent: 340 nM

Variant	Kd
chain 1 T16A	460 nM
chain 1 N6A	260 nM
chain 1 D8A	1300 nM
chain 1 D8K	7700 nM
chain 1 I12Q	1000 nM

The remaining lines, values ahead:

Kd	Variant
3200 nM	chain 1 Y15E
7100 nM	chain 1 F5Q
1400 nM	chain 1 F11Q
9200 nM	chain 1 E7A
